From patent US20040146964

Test system: T1, C. elegans HIF-α homologue, wild type
T1 sequence: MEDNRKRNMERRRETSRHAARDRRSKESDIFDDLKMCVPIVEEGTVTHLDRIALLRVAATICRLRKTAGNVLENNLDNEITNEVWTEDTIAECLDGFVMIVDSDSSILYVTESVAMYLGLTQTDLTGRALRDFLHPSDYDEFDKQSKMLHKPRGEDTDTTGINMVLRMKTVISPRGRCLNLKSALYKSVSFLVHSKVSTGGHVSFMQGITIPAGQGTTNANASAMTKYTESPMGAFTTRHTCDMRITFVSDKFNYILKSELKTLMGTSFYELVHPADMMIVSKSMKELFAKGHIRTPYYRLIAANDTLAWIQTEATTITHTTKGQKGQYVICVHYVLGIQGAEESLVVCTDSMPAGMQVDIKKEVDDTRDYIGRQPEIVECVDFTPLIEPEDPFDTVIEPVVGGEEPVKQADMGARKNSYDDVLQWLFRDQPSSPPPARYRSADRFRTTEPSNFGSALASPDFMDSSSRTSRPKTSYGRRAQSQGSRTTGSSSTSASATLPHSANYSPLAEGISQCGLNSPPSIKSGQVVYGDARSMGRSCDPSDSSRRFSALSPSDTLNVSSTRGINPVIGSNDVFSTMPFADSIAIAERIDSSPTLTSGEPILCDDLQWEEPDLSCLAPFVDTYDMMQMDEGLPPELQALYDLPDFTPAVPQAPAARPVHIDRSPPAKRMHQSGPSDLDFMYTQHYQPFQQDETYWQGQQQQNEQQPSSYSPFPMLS

gene product of the predicted ORF T20B3.7
modification of HIF-1 read by HA.VHL-1 capture: had no activity in these assays
